Data reported in patent publication US20240261378A1 (UNM RAINFOREST INNOVATIONS, published 2024).

Tests used:
[1] = biological target: T1, endogenous TRIM16 (human, UniProt O95361 1-564); assay: co-IP of endogenous proteins, HeLa lysates
T1 construct: Endogenous protein, immunoprecipitated from cell lysates

[2] = biological target: T2, [35S] myc-HA-TRIM16 wild type (in vitro translated) (human, UniProt O95361 1-564, [35S]-methionine radiolabel); assay: GST pull-down of in vitro translated 35S-labelled TRIM
T2 construct: not shown: Myc-HA tag

[3] = biological target: T3, 35S-Myc-HA-TRIM21 (in vitro translated) (human, UniProt P19474 1-475, [35S]-methionine radiolabel); assay: as above
T3 construct: not shown: Myc-HA tag

[4] = biological target: Optineurin (UniProt Q96CV9 1-577, limits assumed); assay: GST-galectin-8 pull-down with Sequestosome 1-like receptors
Sequence of Optineurin (Q96CV9 whole entry): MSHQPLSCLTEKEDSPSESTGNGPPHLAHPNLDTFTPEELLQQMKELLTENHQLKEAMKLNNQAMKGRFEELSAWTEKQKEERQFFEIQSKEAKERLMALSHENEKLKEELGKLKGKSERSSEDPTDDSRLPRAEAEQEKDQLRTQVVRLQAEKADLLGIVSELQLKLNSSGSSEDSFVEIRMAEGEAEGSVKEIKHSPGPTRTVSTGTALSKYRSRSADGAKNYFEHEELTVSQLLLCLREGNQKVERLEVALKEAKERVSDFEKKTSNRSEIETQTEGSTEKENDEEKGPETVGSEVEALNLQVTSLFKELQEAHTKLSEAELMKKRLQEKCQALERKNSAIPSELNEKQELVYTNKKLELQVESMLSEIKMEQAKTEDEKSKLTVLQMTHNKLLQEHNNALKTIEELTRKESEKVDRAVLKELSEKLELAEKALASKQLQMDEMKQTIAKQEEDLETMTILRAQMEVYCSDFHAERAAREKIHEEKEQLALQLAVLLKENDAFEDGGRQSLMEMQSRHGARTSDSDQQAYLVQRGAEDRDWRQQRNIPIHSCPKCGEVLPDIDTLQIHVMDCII
Source text: GST-fusion proteins were expressed in Escherichia coli SoluBL21 (Amsbio). […] The [³⁵S] labeled proteins were produced using the TNT T7 Quick Coupled Transcription/Translation System (Promega) in the presence of [³⁵S] L-methionine. The proteins were eluted from washed beads by boiling in SDS-PAGE gel loading buffer. separated by SDS-PAGE, and radiolabeled proteins were detected in a Fujifilm bioimaging analyzer BAS-5000 (Fuji).

T3 sequence (P19474 whole entry): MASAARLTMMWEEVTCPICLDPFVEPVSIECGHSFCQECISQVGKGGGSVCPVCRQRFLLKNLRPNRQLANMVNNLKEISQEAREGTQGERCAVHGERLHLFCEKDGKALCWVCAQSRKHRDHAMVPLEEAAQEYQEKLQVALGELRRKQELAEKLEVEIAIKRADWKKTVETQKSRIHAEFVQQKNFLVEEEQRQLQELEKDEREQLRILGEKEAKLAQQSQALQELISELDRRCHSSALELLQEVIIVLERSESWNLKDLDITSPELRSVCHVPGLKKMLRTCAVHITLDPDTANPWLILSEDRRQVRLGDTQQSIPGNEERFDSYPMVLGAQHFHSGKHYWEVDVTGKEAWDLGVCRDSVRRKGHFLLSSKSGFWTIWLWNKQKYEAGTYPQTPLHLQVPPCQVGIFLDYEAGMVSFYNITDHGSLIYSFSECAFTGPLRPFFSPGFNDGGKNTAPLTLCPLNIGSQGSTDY

Binder | binding result [1] | binding result [2] | binding result [3] | binding result [4]
endogenous ULK1 (enzyme, UniProt O75385 1-1050, looked up) MEPGRGGTETVGKFEFSRKDLIGHGAFAVVFKGRHREKHDLEVAVKCINKKNLAKSQTLLGKEIKILKELKHENIVALYDFQEMANSVYLVMEYCNGGDLADYLHAMRTLSEDTIRLFLQQIAGAMRLLHSKGIIHRDLKPQNILLSNPAGRRANPNSIRVKIADFGFARYLQSNMMAATLCGSPMYMAPEVIMSQHYDGKADLWSIGTIVYQCLTGKAPFQASSPQDLRLFYEKNKTLVPTIPRETSAPLRQLLLALLQRNHKDRMDFDEFFHHPFLDASPSVRKSPPVPVPSYPSSGSGSSSSSSSTSHLASPPSLGEMQQLQKTLASPADTAGFLHSSRDSGGSKDSSCDTDDFVMVPAQFPGDLVAEAPSAKPPPDSLMCSGSSLVASAGLESHGRTPSPSPPCSSSPSPSGRAGPFSSSRCGASVPIPVPTQVQNYQRIERNLQSPTQFQTPRSSAIRRSGSTSPLGFARASPSPPAHAEHGGVLARKMSLGGGRPYTPSPQVGTIPERPGWSGTPSPQGAEMRGGRSPRPGSSAPEHSPRTSGLGCRLHSAPNLSDLHVVRPKLPKPPTDPLGAVFSPPQASPPQPSHGLQSCRNLRGSPKLPDFLQRNPLPPILGSPTKAVPSFDFPKTPSSQNLLALLARQGVVMTPPRNRTLPDLSEVGPFHGQPLGPGLRPGEDPKGPFGRSFSTSRLTDLLLKAAFGTQAPDPGSTESLQEKPMEIAPSAGFGGSLHPGARAGGTSSPSPVVFTVGSPPSGSTPPQGPRTRMFSAGPTGSASSSARHLVPGPCSEAPAPELPAPGHGCSFADPITANLEGAVTFEAPDLPEETLMEQEHTEILRGLRFTLLFVQHVLEIAALKGSASEAAGGPEYQLQESVVADQISLLSREWGFAEQLVLYLKVAELLSSGLQSAIDQIRAGKLCLSSTVKQVVRRLNELYKASVVSCQGLSLRLQRFFLDKQRLLDRIHSITAERLIFSHAVQMVQSAALDEMFQHREGCVPRYHKALLLLEGLQHMLSDQADIENVTKCKLCIERRLSALLTGICA | binds |  |  | 
GST-Galectin-8 (other, not shown: GST tag (fusion expressed in E. coli SoluBL21)) MMLSLNNLQNIIYNPVIPFVGTIPDQLDPGTLIVIRGHVPSDADRFQVDLQNGSSMKPRADVAFHFNPRFKRAGCIVCNTLINEKWGREEITYDTPFKREKSFEIVIMVLKDKFQVAVNGKHTLLYGHRIGPEKIDTLGIYGKVNIHSIGFSFSSDLQSTQASSLELTEISRENVPKSGTPQLPSNRGGDISKIAPRTVYTKSKDSTVNHTLTCTKIPPMNYVSKRLPFAARLNTPMGPGRTVVVKGEVNANAKSFNVDLLAGKSKDIALHLNPRLNIKAFVRNSFLQESWGEEERNITSFPFSPGMYFEMIIYCDVREFKVAVNGVHSLEYKHRFKELSSIDTLEINGDIHLLEVRSW |  | no binding | no binding | no binding
